This note sets out measurements from US20130149320A1 (CENTRE NATIONAL DE LA RECHERCHE SCIENTIFIQUE, published 2013).

The test concerns the target T1, Asf1 from Xenopus laevis (endogenous, high speed egg extract) (Xenopus laevis, UniProt Q69DB9 1-201, limits assumed).
T1 construct: also called Asf1 from X. laevis
Kind of test: GST pull-down on Xenopus egg extract (HSE), Western blot. The procedure:
FIG. 22. Inhibition of chromatin assembly with the B-domain of HIRA. FIG. 22A Binding of the wild-type but not the mutated form (I461D) of the B-domain of HIRA to Asf1. GST pull-down was performed on HSE extracts with […] of recombinant GST B-domain of HIRA proteins on beads. Input and flowthrough are 10% of the immunoprecipitated material. […] FIG. 22B The B-domain of HIRA inhibits nucleosome assembly independent of replication. In vitro nucleosome assembly reactions independent of DNA synthesis were performed with increasing amounts (2, 4 or 8 mg) of the recombinant GST HIRA B-domain or its mutated form (I461D) added directly into the nucleosome assembly reaction mix. The purified plasmid DNA was analyzed by agarose elecrophoresis and was visualized by staining with ethidium bromide (EtBr). The migration positions of DNA plasmid form 1 (supercoiled), form 11 (nicked circular) and lr (closed circular) are indicated.
GST pull-downs were performed by mixing […] of High speed xenopus egg extract (HSE prepared as described in (Almouzni, 1998)), 1X nucleosome assembly buffer, 300 ng p^{bluescript}, 4 mM ATP, […] creatine kinase and 3 mg of recombinant protein on beads during 3 h at 23° C. The flow through was recovered and beads were washed 3 times with PBS supplemented with 150 mM NaCl and 0,5% NP40. Different fractions were loaded on a NuPAGE 4-12% (Invitrogen) and ran in MES buffer. […]
On the technique in general: In western blotting, separated proteins are transferred to a membrane and probed.

Ends that are not written are not given here.

T1 sequence (Q69DB9 whole entry): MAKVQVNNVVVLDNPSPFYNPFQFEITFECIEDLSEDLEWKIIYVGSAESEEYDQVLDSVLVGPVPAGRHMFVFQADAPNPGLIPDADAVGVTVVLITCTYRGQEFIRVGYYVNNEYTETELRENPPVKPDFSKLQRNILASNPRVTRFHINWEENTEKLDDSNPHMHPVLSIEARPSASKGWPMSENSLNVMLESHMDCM

B1: recombinant GST HIRA B-domain I461D (mutated Xenopus laevis HIRA B-domain, aa 435-480) (other, not shown: a dimerising Fc or GST; small tags and cut ends)
chain: GESLEDIRKNLLKKQVETRTADGRRRDTPLCIAQLDTGDFSTAFFN
modifications: also: GST fusion tag, sequence not given here
notes: also called mutated GST-B-domain I461D; mutated form (I461D) of the B-domain of HIRA
For B1, the binding result is “no binding (tested: 3 mg of recombinant protein on beads)”.
